*1 amine or outer side, *2 acyl side, *3 side chain or, on linkers, in order; H or OH if unused. Where no end group is shown, it is not given here. Side-chain parts run from the residue outwards. [ ]: non-standard residue; d: D form. The star is where a group is joined. 40K‑TE PEG = 40 kDa PEG attached to Cys by thioether; γGlu = O=C(O)[C@H](CCC(=O)[*:2])N[*:1]; Palmitoyl = CCCCCCCCCCCCCCCC(=O)*; Morn = not defined here; Aib = CC(C)(N)C(=O)O
B1: peptide of SEQ ID NO: 17 (peptide)
peptide: H[Aib]QGTFTSDK([γGlu-γGlu-Palmitoyl])SKYLD[Aib]RAAQDFVQWLMNTK[γGlu]-NH2
modifications: N-terminus assumed
SMILES: CCCCCCCCCCCCCCCC(=O)N[C@@H](CCC(=O)N[C@@H](CCC(=O)NCCCC[C@H](NC(=O)[C@H](CC(=O)O)NC(=O)[C@H](CO)NC(=O)[C@@H](NC(=O)[C@H](Cc1ccccc1)NC(=O)[C@@H](NC(=O)CNC(=O)[C@H](CCC(N)=O)NC(=O)C(C)(C)NC(=O)[C@@H](N)Cc1c[nH]cn1)[C@@H](C)O)[C@@H](C)O)C(=O)N[C@@H](CO)C(=O)N[C@@H](CCCCN)C(=O)N[C@@H](Cc1ccc(O)cc1)C(=O)N[C@@H](CC(C)C)C(=O)N[C@@H](CC(=O)O)C(=O)NC(C)(C)C(=O)N[C@@H](CCCNC(=N)N)C(=O)N[C@@H](C)C(=O)N[C@@H](C)C(=O)N[C@@H](CCC(N)=O)C(=O)N[C@@H](CC(=O)O)C(=O)N[C@@H](Cc1ccccc1)C(=O)N[C@H](C(=O)N[C@@H](CCC(N)=O)C(=O)N[C@@H](Cc1c[nH]c2ccccc12)C(=O)N[C@@H](CC(C)C)C(=O)N[C@@H](CCSC)C(=O)N[C@@H](CC(N)=O)C(=O)N[C@H](C(=O)N[C@@H](CCCCN)C(=O)N[C@@H](CCC(N)=O)C(=O)O)[C@@H](C)O)C(C)C)C(=O)O)C(=O)O
B2: peptide of SEQ ID NO: 15 (peptide)
peptide: H[Aib]QGTFTSDK([γGlu-γGlu-Palmitoyl])SKYLD[Aib]RAAQDFVQWL[Morn]DTKQ-OH
modifications: not fully specified; printed as HaibQGTFTSDK(γGlu-γGlu-C16)SKYLDaibRAAQDFVQWLMornDTKQ-acid; reading uncertain
B3: peptide of SEQ ID NO: 14 (peptide)
peptide: HSQGTFTSDKSKYLDERAAQDFVQWLLDTKX
modifications: s at position 2 (lower case, presumably D-Ser); K(γGlu-C16) at position 10 (Lys acylated with C16 via γGlu spacer); C-terminal γGlu; C-terminal amide
B4: peptide of SEQ ID NO: 16 (peptide)
peptide: H[Aib]QGTFTSDK([γGlu-γGlu-Palmitoyl])SKYLD[Aib]RAAQDFVQWLLDTKQ-OH
modifications: N-terminus assumed
SMILES: CCCCCCCCCCCCCCCC(=O)N[C@@H](CCC(=O)N[C@@H](CCC(=O)NCCCC[C@H](NC(=O)[C@H](CC(=O)O)NC(=O)[C@H](CO)NC(=O)[C@@H](NC(=O)[C@H](Cc1ccccc1)NC(=O)[C@@H](NC(=O)CNC(=O)[C@H](CCC(N)=O)NC(=O)C(C)(C)NC(=O)[C@@H](N)Cc1c[nH]cn1)[C@@H](C)O)[C@@H](C)O)C(=O)N[C@@H](CO)C(=O)N[C@@H](CCCCN)C(=O)N[C@@H](Cc1ccc(O)cc1)C(=O)N[C@@H](CC(C)C)C(=O)N[C@@H](CC(=O)O)C(=O)NC(C)(C)C(=O)N[C@@H](CCCNC(=N)N)C(=O)N[C@@H](C)C(=O)N[C@@H](C)C(=O)N[C@@H](CCC(N)=O)C(=O)N[C@@H](CC(=O)O)C(=O)N[C@@H](Cc1ccccc1)C(=O)N[C@H](C(=O)N[C@@H](CCC(N)=O)C(=O)N[C@@H](Cc1c[nH]c2ccccc12)C(=O)N[C@@H](CC(C)C)C(=O)N[C@@H](CC(C)C)C(=O)N[C@@H](CC(=O)O)C(=O)N[C@H](C(=O)N[C@@H](CCCCN)C(=O)N[C@@H](CCC(N)=O)C(=O)O)[C@@H](C)O)C(C)C)C(=O)O)C(=O)O

What follows are binders tested against human GCGR (CHO-K1 cells stably expressing human GCGR) (human, UniProt P47871 26-477) (assay: cell-based or functional assay).
human GCGR (CHO-K1 cells stably expressing human GCGR), sequence (P47871 26-477): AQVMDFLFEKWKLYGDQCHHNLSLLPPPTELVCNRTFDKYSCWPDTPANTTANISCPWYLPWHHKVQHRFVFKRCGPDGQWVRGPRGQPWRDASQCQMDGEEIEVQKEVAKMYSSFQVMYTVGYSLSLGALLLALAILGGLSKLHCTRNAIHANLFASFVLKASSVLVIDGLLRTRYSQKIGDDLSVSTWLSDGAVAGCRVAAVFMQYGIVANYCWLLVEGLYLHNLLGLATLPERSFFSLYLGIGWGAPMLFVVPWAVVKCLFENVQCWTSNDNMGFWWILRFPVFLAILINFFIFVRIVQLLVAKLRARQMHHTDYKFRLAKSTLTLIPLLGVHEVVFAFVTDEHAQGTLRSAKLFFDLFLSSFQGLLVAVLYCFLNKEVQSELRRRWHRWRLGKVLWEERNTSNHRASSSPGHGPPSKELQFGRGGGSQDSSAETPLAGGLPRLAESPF

With B1 the “EC50 (nM) at glucagon receptor (cAMP production, DiscoveRx Hithunter cAMP XS+, CHO-K1)” value was 0.11 nM.

The binders below were run against human GLP-1R (CHO-K1 cells stably expressing human GLP-1R) (human, UniProt P43220 24-463) (assay: cell-based or functional assay).

B1 was tested, and the “EC50 (nM) at GLP-1 receptor (cAMP production, DiscoveRx Hithunter cAMP XS+, CHO-K1)” value was 0.075 nM.

Each binder was assayed against T1, human GIPR (CHO-K1 cells stably expressing human GIPR) (human, UniProt P48546 22-466) (assay: cell-based or functional assay).
T1 sequence (looked up): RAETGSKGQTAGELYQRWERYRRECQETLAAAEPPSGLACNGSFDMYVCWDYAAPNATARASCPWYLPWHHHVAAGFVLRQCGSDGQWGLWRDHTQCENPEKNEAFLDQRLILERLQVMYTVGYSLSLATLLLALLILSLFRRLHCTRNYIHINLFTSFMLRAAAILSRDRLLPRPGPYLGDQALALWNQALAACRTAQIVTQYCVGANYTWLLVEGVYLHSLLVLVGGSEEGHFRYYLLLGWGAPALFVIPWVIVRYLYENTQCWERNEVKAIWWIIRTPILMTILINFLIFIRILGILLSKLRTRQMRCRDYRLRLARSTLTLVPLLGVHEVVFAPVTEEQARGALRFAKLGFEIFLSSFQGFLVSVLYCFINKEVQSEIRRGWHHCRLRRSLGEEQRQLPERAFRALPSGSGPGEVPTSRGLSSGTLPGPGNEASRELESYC

For B1, the “EC50 (nM) at GIP receptor (cAMP production, DiscoveRx Hithunter cAMP XS+, CHO-K1)” value was over 2000 nM.

Each binder was assayed against glucagon receptor (HEK293 cells co-transfected with the glucagon receptor and a CRE-luciferase gene) (assay: cell-based or functional assay).

Point of comparison: H[Aib]QGTFTSDYSKYLDERRA[Aib]EFVC(40K‑TE PEG)WLLDTK[γGlu]-NH2 [peptide of SEQ ID NO: 13], “EC50 (nM) at glucagon receptor (cAMP-induced luciferase reporter, HEK293)” value 2.81 nM. Against it:
- B2 — 470-fold lower, 0.006 nM
- B3 — 940-fold lower, 0.003 nM
- H[Aib]QGTFTSDK([γGlu-γGlu-Palmitoyl])SKYLD[Aib]RAAQDFVQWLMDTK[γGlu]-NH2 [peptide of SEQ ID NO: 12] — 280-fold lower, 0.01 nM
- B4 — 190-fold lower, 0.015 nM

Each binder was assayed against GLP-1 receptor (HEK293 cells co-transfected with the GLP-1 receptor and a CRE-luciferase gene) (assay: cell-based or functional assay).

Point of comparison: H[Aib]QGTFTSDYSKYLDERRA[Aib]EFVC(40K‑TE PEG)WLLDTK[γGlu]-NH2 [peptide of SEQ ID NO: 13], “EC50 (nM) at GLP-1 receptor (cAMP-induced luciferase reporter, HEK293)” value 0.567 nM. Against it:
- B2 — 110-fold lower, 0.005 nM
- B3 — 190-fold lower, 0.003 nM
- H[Aib]QGTFTSDK([γGlu-γGlu-Palmitoyl])SKYLD[Aib]RAAQDFVQWLMDTK[γGlu]-NH2 [peptide of SEQ ID NO: 12] — 190-fold lower, 0.003 nM
- B4 — 30-fold lower, 0.019 nM

What follows are binders tested against T2, GIP receptor (procedure of Example 3) (assay: cell-based or functional assay).
T2 sequence (P48546 whole entry, species assumed, looked up): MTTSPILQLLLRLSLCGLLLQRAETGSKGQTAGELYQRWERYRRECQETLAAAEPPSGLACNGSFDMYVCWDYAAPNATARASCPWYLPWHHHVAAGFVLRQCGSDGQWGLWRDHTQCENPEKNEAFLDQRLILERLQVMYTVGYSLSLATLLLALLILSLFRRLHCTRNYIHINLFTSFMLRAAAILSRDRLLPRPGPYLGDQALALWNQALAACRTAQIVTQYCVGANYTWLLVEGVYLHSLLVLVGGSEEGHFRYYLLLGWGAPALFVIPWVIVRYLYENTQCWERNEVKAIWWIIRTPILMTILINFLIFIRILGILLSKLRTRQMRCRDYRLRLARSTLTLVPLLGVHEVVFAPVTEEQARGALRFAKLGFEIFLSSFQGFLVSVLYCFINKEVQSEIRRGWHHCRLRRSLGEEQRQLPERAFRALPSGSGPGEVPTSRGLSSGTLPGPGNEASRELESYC

Point of comparison: H[Aib]QGTFTSDK([γGlu-γGlu-Palmitoyl])SKYLD[Aib]RAAQDFVQWLMDTK[γGlu]-NH2 [peptide of SEQ ID NO: 12], “EC50 (nM) at GIP receptor (procedure of Example 3)” value 12.8 nM. Against it:
- B2 — 6.7-fold lower, 1.9 nM
- H[Aib]QGTFTSDYSKYLDERRA[Aib]EFVC(40K‑TE PEG)WLLDTK[γGlu]-NH2 [peptide of SEQ ID NO: 13] — 11-fold higher, 140 nM
- B3 — 76-fold higher, 976 nM
- B4 — 12-fold lower, 1.04 nM

Reference: US20120329708A1 (INDIANA UNIVERSITY RESEARCH AND TECHNOLOGY, published 2012)
